Assay results published in the RNAGym collection of RNA variant scans (doi:10.1093/molbev/msab373).

B1: Azoarcus group I ribozyme (parent)
chain: GUGCCUUGCGCCGGGAAACCACGCAAGGGAUGGUGUCAAAUUCGGCGAAACCUAAGCGCCCGCCCGGGCGUAUGGCAACGCCGAGCCAAGCUUCGGCGCCUGCGCCGAUGAAGGUGUAGAGACUAGACGGCACCCACCUAAGGCAAACGCUAUGGUGAAGGCAUAGUCCAGGGAGUGGCGAAAGUCACACAAACCGG

Variants of: B1
Experiment: reverse-splicing fitness (ratio to wild type); higher = more active; in vitro selection; Mg2+ level not given
In short: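 An in vitro group I ribozyme library with randomized positions was T7-transcribed and gel-purified. In triplicate, 10 pmol RNA in EPPS pH 7.5 was reacted with 50 pmoles of a 30-nt RNA substrate for 1 h at 37 °C across several added MgCl2 levels (1–48 mM), then stopped with EDTA. Products were reverse transcribed from a substrate-complementary primer, PCR-amplified and sequenced (HiSeq 4000). Fitness is a variant's read proportion after selection over that before, normalised to wild type.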

Row | Variant | reverse-splicing fitness
1 | C82G A120C A145G U176A | 0.0722
2 | C82G A120C A145G C150A U176G | 0.0102
3 | C82G A120C A145G C150A U176C | 0.034
4 | C82G A120C A145G C150A U176A | 0.0196
5 | C82G A120G A145C C150U C169G U176C | 0.0128
6 | C82G A120G A145C C150U C169G U176A | 0.0238
7 | C82G A120G A145C C150U C169G U176G | 0.00426
8 | C82G A120C A145C C150A C169G | 0.00715
9 | C82G A120C A145C C150A C169A | 0.00726
10 | C82G A120C A145C C150A C169U | 0.00799
11 | C82G A120C A145G C169G U176A | 0.0164
12 | C82G A120C A145G C169G U176C | 0.0241
13 | C82G A120C A145G C169G U176G | 0.00417
14 | C82G A120G A145C C169G U176A | 0.0291
15 | C82G A120G A145C C169G U176C | 0.0224
16 | C82G A120G A145C C169G U176G | 0.00393
17 | C82G A120G | 0.029
18 | C82G A120C | 0.208
19 | C82G A120C A145G C150U C169U | 0.0243
20 | C82G A120C A145G C150U C169A | 0.0102
21 | C82G A120C A145G C150U C169G | 0.00909

Row | Variant | reverse-splicing fitness
22 | C82G A120C C150U C169G | 0.00822
23 | C82G A120C C150U C169A | 0.0121
24 | C82G A120C C150U C169U | 0.0173
25 | C82G A120C A145G C169A | 0.0105
26 | C82G A120C A145G C169G | 0.00863
27 | C82G A120C A145G C169U | 0.0256
28 | C82G A120G A145C C150G C169U U176C | 0.0125
29 | C82G A120G A145C C150G C169U U176G | 0.00495
30 | C82G A120G A145C C150G C169U U176A | 0.0154
31 | C82G A120C A145G C150U C169G U176C | 0.0205
32 | C82G A120C A145G C150U C169G U176A | 0.0139
33 | C82G A120C A145G C150U C169G U176G | 0.00538
34 | C82G A111U C169G U176G | 0.00614
35 | C82G A111U C169G U176C | 0.0227
36 | C82G A120C A145U C150G C169U U176G | 0.00547
37 | C82G A120C A145U C150G C169U U176C | 0.012
38 | C82G A120C A145U C150G C169U U176A | 0.00813
39 | C82G A120C A145G C150G C169G U176A | 0.0134
40 | C82G A120C A145G C150G C169G U176C | 0.0134
41 | C82G A120C A145G C150G C169G U176G | 0.00667
42 | C82G A120C C150U C169U U176A | 0.0159

Row | Variant | reverse-splicing fitness
43 | C82G A120C C150U C169U U176C | 0.0162
44 | C82G A120C C150U C169U U176G | 0.00634
45 | C82G A120C C150A C169U U176C | 0.0182
46 | C82G A120C C150A C169U U176G | 0.00663
47 | C82G A120C C150A C169U U176A | 0.0156
48 | C82G A120C C150U C169G U176G | 0.0048
49 | C82G A120C C150U C169G U176C | 0.0162
50 | C82G A120C C150U C169G U176A | 0.0141
51 | C82G A120C A145U C150U C169A | 0.00933
52 | C82G A120C A145U C150U C169G | 0.00838
53 | C82G A120C A145U C150U C169U | 0.0172
54 | C82G A120C A145G C150G C169A U176G | 0.00912
55 | C82G A120C A145G C150G C169A U176A | 0.0143
56 | C82G A120C A145G C150G C169A U176C | 0.0145
57 | C82G A120C A145U C150A C169A U176A | 0.0178
58 | C82G A120C A145U C150A C169A U176G | 0.00421
59 | C82G A120C A145U C150A C169A U176C | 0.0107
60 | C82G A120C A145C C150A C169U U176G | 0.0044
61 | C82G A120C A145C C150A C169U U176A | 0.0134
62 | C82G A120C A145C C150A C169U U176C | 0.0101
63 | C82G A120C C150A C169U | 0.0118

Row | Variant | reverse-splicing fitness
64 | C82G A120C C150A C169A | 0.0151
65 | C82G A120C C150A C169G | 0.00837
66 | C82G A120C A145C C150A U176C | 0.0118
67 | C82G A120C A145C C150A U176A | 0.012
68 | C82G A120C A145C C150A U176G | 0.0054
69 | C82G A120C A145U C150A C169G U176G | 0.00461
70 | C82G A120C A145U C150A C169G U176C | 0.0161
71 | C82G A120C A145U C150A C169G U176A | 0.014
72 | C82G A120C A145C C150G C169A | 0.00926
73 | C82G A120C A145C C150G C169G | 0.00712
74 | C82G A120C A145C C150G C169U | 0.0101
75 | C82G A120G A145G C150A | 0.0107
76 | C82G A120C C150G C169U U176A | 0.00577
77 | C82G A120C C150G C169U U176C | 0.0109
78 | C82G A120C C150G C169U U176G | 0.00535
79 | C82G A120G A145C C150A C169A U176G | 0.00483
80 | C82G A120G A145C C150A C169A U176A | 0.0119
81 | C82G A120G A145C C150A C169A U176C | 0.00516
82 | C82G A120C A145G C169U U176A | 0.017
83 | C82G A120C A145G C169U U176C | 0.0174
84 | C82G A120C A145G C169U U176G | 0.00453
